Data set [1] has as its target T1, NpSRII/NpHtrII1-157 complex (sensory rhodopsin II with its cognate transducer) (Natronomonas pharaonis, UniProt P42196).
T1 construct: gene sop2; wild-type NpSRII with truncated transducer NpHtrII residues 1-157; produced in E. coli, reconstituted; 2:2 complex; with Sensory rhodopsin II transducer
T1 sequence (P42196 2-239): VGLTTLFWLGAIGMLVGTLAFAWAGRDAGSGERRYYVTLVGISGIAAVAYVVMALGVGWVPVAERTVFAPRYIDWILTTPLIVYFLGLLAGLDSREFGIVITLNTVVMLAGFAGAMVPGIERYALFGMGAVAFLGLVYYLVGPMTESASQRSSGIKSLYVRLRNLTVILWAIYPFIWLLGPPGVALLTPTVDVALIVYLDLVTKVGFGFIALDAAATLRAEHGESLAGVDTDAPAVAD
T1 sequence (P42259 1-157 partner): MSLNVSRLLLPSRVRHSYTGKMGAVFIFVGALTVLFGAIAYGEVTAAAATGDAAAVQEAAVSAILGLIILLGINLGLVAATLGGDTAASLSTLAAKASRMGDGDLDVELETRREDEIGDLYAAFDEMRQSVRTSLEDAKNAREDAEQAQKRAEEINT
Briefly: X-ray crystallography, trapped M intermediate. It is filed as binding. The note with it: active M state, light-induced; space group I212121; 1.9 A; covalent (retinal Schiff base, Lys205).

Data set [2] has as its target T2, NpSRII/NpHtrII1-135 complex (Natronomonas pharaonis, UniProt P42196).
T2 construct: gene sop2; wild-type NpSRII with truncated transducer NpHtrII residues 1-135; produced in E. coli, reconstituted; 2:2 complex; with Sensory rhodopsin II transducer
Briefly: X-ray crystallography. It is filed as binding. The settings on record: space group P21212; covalent (retinal Schiff base, Lys205); retinal isomer not stated separately for this crystal.
T2 sequence (P42259 1-135 G83F, form open, one chain of several): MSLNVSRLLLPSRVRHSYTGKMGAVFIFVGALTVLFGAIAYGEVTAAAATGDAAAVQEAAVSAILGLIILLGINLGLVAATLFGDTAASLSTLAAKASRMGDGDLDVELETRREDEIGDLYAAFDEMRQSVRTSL

The target of data set [3] is T3, NpSRII/NpHtrII1-135 complex (Natronomonas pharaonis, UniProt P42196).
T3 construct: gene sop2; wild-type NpSRII with truncated transducer NpHtrII residues 1-135; produced in E. coli, reconstituted; 2:2 complex; with Sensory rhodopsin II transducer
T3 sequence (P42196 2-239): T1 sequence (P42196 2-239)
T3 sequence (P42259 1-135 partner): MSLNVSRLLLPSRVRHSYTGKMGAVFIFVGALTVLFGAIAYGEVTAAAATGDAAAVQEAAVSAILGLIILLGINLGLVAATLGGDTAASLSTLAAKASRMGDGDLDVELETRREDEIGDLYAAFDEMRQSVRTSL
Briefly: X-ray crystallography. It is filed as binding. The note with it: ground state; covalent (retinal Schiff base, Lys205); retinal isomer not stated separately for this crystal.

The target of data set [4] is T1, NpSRII/NpHtrII1-157 complex (sensory rhodopsin II with its cognate transducer). Put plainly: X-ray crystallography. The format is binding. The note with it: ground state; space group I212121; 1.9 A; in meso crystals, pH 5.6; covalent (retinal Schiff base, Lys205).
The target in data set [5] is NpHtrII (Natronomonas pharaonis) (UniProt P42259). The note with it: cited from earlier work.
The target is the same in data set [6]. The note with it: cited from earlier work. The source holds these as a separate data set.
The target of data set [7] is T4, sensory rhodopsin II from N. pharaonis (NpSRII) (N. pharaonis, UniProt P42196 1-239, retinal bound through a Schiff base (Lys205)).
T4 construct: sensory rhodopsin II (NpSRII), N. pharaonis, wild type; also called the receptor; source: E. coli, purified, reconstituted into a functional complex, and resolubilized
T4 sequence (looked up): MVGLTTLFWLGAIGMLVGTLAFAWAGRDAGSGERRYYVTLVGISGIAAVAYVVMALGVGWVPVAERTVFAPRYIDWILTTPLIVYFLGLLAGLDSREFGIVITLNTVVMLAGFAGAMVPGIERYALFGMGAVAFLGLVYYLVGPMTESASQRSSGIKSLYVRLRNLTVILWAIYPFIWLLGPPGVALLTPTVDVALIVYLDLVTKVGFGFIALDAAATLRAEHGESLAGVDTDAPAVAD
Briefly: crystal structure; ground state of the complex with NpHtrII 1-135 (PDB 5JJJ); in meso crystals; space group not tied to this entry in the text (P6_(4) likely). The settings on record: both partners purified.

Data set [8] addresses T4, sensory rhodopsin II from N. pharaonis …. Briefly: crystal structure; complex with the G83F mutant, space group P2_(1)2_(1)2, "V"-shape; crystallization conditions the same as for the wild type complex in the P6_(4) space group. The settings on record: both partners purified.
For data set [9] the target is unchanged. Put plainly: crystal structure; ground state, space group I2_(1)2_(1)2_(1), 1.9 Å; in meso crystallization (monooleoyl), 22 °C, 1 M Na/K phosphate pH 5.6, trehalose. The note with it: both partners purified.
Data set [10] deals with the molecule itself. The description is as above.

The source of these data is publication PMC5292967, “New Insights on Signal Propagation by Sensory Rhodopsin II/Transducer Complex” (Scientific Reports, 2017).

Numbering of substitutions follows the chain as printed. In names and notes the source's numbering stands. Where two headings read alike, the source gives them in different places.

Regarding `CC1=C(/C=C/C(C)=C/C=C/C(C)=C\C=O)C(C)(C)CCC1` [13-cis retinal], in data set [1], the “X-ray crystallography, trapped M intermediate” value was “the retinal chromophore switches from all-trans conformation to 13-cis”. As for `CC1=C(/C=C/C(C)=C/C=C/C(C)=C/C=O)C(C)(C)CCC1` [all-trans retinal], the X-ray crystallography entry in [2] is on record as “crystal structure of the NpSRII/NpHtrII1–135-G83F mutant demonstrate different crystal packing”; in data set [3], 5JJJ (NpSRII/HtrII-135 ground state); in data set [4] it was “the retinal chromophore switches from all-trans conformation to 13-cis”. As a reminder, the Kd is the constant that tells how readily two partners part at equilibrium. On to “NpSRII (active state) (from UniProt P42196)”, for which, in data set [5], the dissociation constant Kd was 15 µM. For NpSRII (from UniProt P42196), in data set [6], the Kd was 0.1 µM.

B1: NpHtrII_(1-135), shortened transducer (domain or fragment, N. pharaonis, UniProt P42259 1-135, looked up)
chain: T3 sequence (P42259 1-135 partner)
notes: source: E. coli, purified, reconstituted into a functional complex, and resolubilized
Take B1: in data set [7], the binding result is recorded as “binds”.

B2: NpHtrII_(1-135)-G83F mutant (domain or fragment, N. pharaonis, UniProt P42259 1-135, looked up)
chain: T3 sequence (P42259 1-135 partner) with G83F
notes: as for B1
As to B2, in [8], the binding result was “binds”.

B3: NpHtrII_(1-157), shortened cognate transducer of NpSRII (domain or fragment, N. pharaonis, UniProt P42259 1-157, looked up)
chain: T1 sequence (P42259 1-157 partner)
notes: NpHtrII, transducer of sensory rhodopsin II, N. pharaonis, residues 1-157 (transmembrane helices TM1 and TM2, HAMP1 and linker); only the transmembrane part is seen in the electron density; also called HtrII-157; the transducer; source: E. coli, purified, reconstituted into a functional complex, and resolubilized
Turning to B3, the binding result in data set [9] and in data set [10] was “binds” throughout.
